# Measurements taken from the supplement of paper PMC11865577.
# Test system: TO-3-N3 (biotin conjugate)
# Test: pull-down binding Z-score (relative to library population); higher = stronger binding
# Conditions: RNA library: Library-2
# How it was run: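 An RNA library (1 μg) carrying a Cy5 or Cy3 end label was heat-folded in phosphate/NaCl/KCl buffer, then incubated for 60 min at 25 °C with streptavidin beads loaded with 100 pmol of biotin-conjugated small molecule. The beads were washed three times, and bound RNA was released in hot SDS and hybridised to a DNA barcode microarray for 20 h at 55.5 °C. Each binding score was derived by subtracting the signal from beads without compound, averaging the barcoded replicate probes after removing the highest and lowest, and expressing the result as a Z-score relative to the library mean and standard deviation.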
row,Sequence,pull-down binding Z-score
1,ACAACAGGAGUCACCUUUUGU [DMSMaPseq_invitro_SARS-CoV-2_Motif_108],-0.879
2,ACAACCCUUAAGGGUGU [SHAPE_invivo_SARS-CoV-2_Motif_115],-0.802
3,ACAAGAGGGUGUGGUUGAUUAUGGUGCUAGAUUUUACUUUUACACCAGUAAAACAACUGUAGCGUCACUUAUCAACACACUUAACGAUCUAAAUGAAACUCUUGU,0.233
4,ACAAGAUGAUAAGAAAAUCAAAGCUUGU,-0.879
5,ACAAGGCUAUUGAUGGUGGUGUCACUCGUGACAUAGCAUCUACAGAUACUUGU [SHAPE_invitro_SARS-CoV-2_Motif_170],-0.355
6,ACAAGUUGCAAUUUACAAGUCUUGAAAUUCCACGUAGGAAUGUGGCAACUUUACAAGCUGAAAAUGUAACAGGACUCUUUAAAGAUUGU,-0.302
7,ACAAUGGCAGACCUCGUCUAUGCUUUAAGGCAUUUUGAUGAAGGUAAUUGU,-0.812
8,ACACAUUCUGACAAAUUCACAGAUGGUGU [SHAPE_invitro_SARS-CoV-2_Motif_350],-0.577
9,ACACGGUGUUUAAACCGUGU,0.59
10,ACACUAAUUCUUUCACACGUGGUGU [DMSMaPseq_invitro_SARS-CoV-2_Motif_381],-0.0462
11,ACACUCUACGUGU,-1.14
12,ACAGAAUGCUGU,-0.821
13,ACAGACUUCAUUAAGAUGUGGUGCUUGCAUACGUAGACCAUUCUUAUGUUGUAAAUGCUGUUACGACCAUGUCAUAUCAACAUCACAUAAAUUAGUCUUGUCUGU,-0.753
14,ACAGAGACUGAUAGUAAGUUCUCUGU [IAV_invivo_NA_6_Motif_16+IAV_invivo_NA_6_Motif_16],-0.363
15,ACAGAUCUUUACCAGGAGUUUUCUGU,-0.933
16,ACAGCAGAGUGCUGU [IAV_invivo_M1_M2_7_Motif_17+IAV_invivo_M1_M2_7_Motif_17],-0.599
17,ACAGGAGUCACCUUUUGU [SHAPE_invitro_SARS-CoV-2_Motif_112],-0.709
18,ACAGGGACUACUCCCACCCAAGAAUAGCAUAGAUGCCUUCAAACUCAACAUUAAAUUGUUGGGUGUUGGUGGCAAACCUUGUAUCAAAGUAGCCACUGU,-0.466
19,ACAGGUUUUAUCGAACCUGU [IAV_invivo_PB1_2_Motif_25+IAV_invivo_PB1_2_Motif_25],-0.147
20,ACAGUAUGUCUUUUGUACUGU,-0.159
21,ACAGUCUGUACCGUCUGCGGUAUGUGGAAAGGUUAUGGCUGU,-0.239
22,ACAUACUAGGACCUCUUUCUGCUCAAACUGGAAUUGCCGUUUUAGAUAUGU [DMSMaPseq_invitro_SARS-CoV-2_Motif_193],-0.933
23,ACAUAGCAGUGGUGUUACCCGUGAACUCAUGCGUGAGCUUAACGGAGGGGCAUACACUCGCUAUGU,-0.138

row,Sequence,pull-down binding Z-score
1,ACAUCAGCUUGUGUUUUGGCUGCUGAAUGU,-0.623
2,ACAUCUCUGGCAUUAAUGCUUCAGUUGU [SHAPE_invivo_SARS-CoV-2_Motif_471],-1.08
3,ACAUGCCAAUUUAGAUUCUUGCAAAAGAGUCUUGAACGUGGUGUGU,-1.07
4,ACAUUACACCAUGU [SHAPE_invivo_SARS-CoV-2_Motif_439],-0.779
5,ACAUUAGAUAAUCAAGAUCUCAAUGGUAACUGGUAUGAUUUCGGUGAUUUCAUACAAACCACGCCAGGUAGUGGAGUUCCUGUUGUAGAUUCUUAUUAUUCAUUGU,-0.0358
6,ACAUUUUAUCUUACUAAUGAUGU [SHAPE_invivo_SARS-CoV-2_Motif_191],-0.182
7,ACCAACCACCACAAACCUCUAUCACCUCAGCUGUUUUGCAGAGUGGUUUUAGAAAAAUGGCAUUCCCAUCUGGU,0.0884
8,ACCAAUGUGCUAUGAGGCCCAAUUUCACUAUUAAGGGUUCAUUCCUUAAUGGUUCAUGUGGUAGUGUUGGU [SHAPE_invivo_SARS-CoV-2_Multi_27_ComplexLevel_1],-0.261
9,ACCACCAAUUAAAGAUUUUGGUGGU [SHAPE_invitro_SARS-CoV-2_Motif_434],0.206
10,ACCAGGAGUUUUCUGUGGUGUAGAUGCUGUAAAUUUACUUACUAAUAUGUUUACACCACUAAUUCAACCUAUUGGU [SHAPE_invitro_SARS-CoV-2_Motif_181],-0.0454
11,ACCAGUUAACUGGU [SHAPE_invitro_SARS-CoV-2_Motif_121],-0.713
12,ACCAUUCUUCGUAAGGGUGGU,-0.172
13,ACCAUUGGUAGAUUUGCCAAUAGGU,-0.133
14,ACCAUUUAAUGAUGGU [DMSMaPseq_invitro_SARS-CoV-2_Motif_383],-0.648
15,ACCCUCAAAAAGAGAUGGCAACUAGCACUCUCCAAGGGU,0.217
16,ACCGGUGGAAUUGCUAUCGCAAUGGCUUGUCUUGUAGGCUUGAUGUGGCUCAGCUACUUCAUUGCUUCUUUCAGACUGUUUGCGCGUACGCGUUCCAUGUGGU,1.2
17,ACCUAAAUAGAGGU,-0.82
18,ACCUCGUCUAUGCUUUAAGGCAUUUUGAUGAAGGU,0.13
19,ACCUGCUCAGUAUGAACUUAAGCAUGGU,-0.339
20,ACCUUGAAGGAAAACAGGGU,0.525
21,ACCUUUAAUUGAAUUGUGCGUGGAUGAGGCUGGUUCUAAAUCACCCAUUCAGUACAUCGAUAUCGGU [SHAPE_invivo_SARS-CoV-2_Motif_532],-0.881
22,ACCUUUAGUACCUUUCUGGAUAACAAUUGCUUAUAUCAUUUGUAUUUCCACAAAGCAUUUCUAUUGGU,0.707
23,ACGACGACUACUAGCGUGCCUUUGUAAGCACAAGCUGAUGAGUACGAACUUAUGUACUCAUUCGUUUCGGAAGAGACAGGUACGUUAAUAGUUAAUAGCGU,-0.319

row,Sequence,pull-down binding Z-score
1,ACGUACUGCCACUAAAGCAUACAAUGUAACACAAGCUUUCGGCAGACGU,0.386
2,ACGUGAGUCUUGUAAAACCUUCUUUUUACGUUUACUCUCGU,0.0863
3,ACGUGGCUUUGGAGACUCCGUGGAGGAGGUCUUAUCAGAGGCACGU,-0.105
4,ACUAAAAAUGU [SHAPE_invitro_SARS-CoV-2_Motif_381],0.184
5,ACUAAAAUAAAACCUCAUAAUUCACAUGAAGGUAAAACAUUUUAUGUUUUACCUAAUGAUGACACUCUACGUGUUGAGGCUUUUGAGU [DMSMaPseq_invitro_SARS-CoV-2_Multi_18_ComplexLevel_1],-0.89
6,AGGUAAAACCAACAGUGGUUGUUAAUGCAGCCAAUGUUUACCU,-0.405
7,AGGUAAGUAUGAUACUUACCUG [U1snRNP5ss-2],-0.742
8,AGGUCAAAUCAAUGAUAUGAUUUUAUCU [SHAPE_invitro_SARS-CoV-2_Motif_388],-0.87
9,AGGUCCAGACAUGUUCCUCGGAACUUGUCGGCGUUGUCCU,-0.757
10,AGGUUGGACAGCUGGUGCUGCAGCUU [SHAPE_invivo_SARS-CoV-2_Motif_420],0.658
11,AGGUUGGUAUGCAAAAGUAUUCUACACUCCAGGGACCACCUGGUACUGGUAAGAGUCAUUUUGCUAUUGGCCU,-0.654
12,AGUACACCUUUGAAAAAGGUGACU,-0.883
13,AGUAUGGCUACAUACU [DMSMaPseq_invitro_SARS-CoV-2_Motif_53],-0.637
14,AGUCAGACAAAUCGCUCCAGGGCAAACUGGAAAGAUUGCUGAUU,0.0712
15,AGUCAUAACAAGAGAAGUGGGUUUUGUCGUGCCUGGUUUGCCUGGCACGAUAUUACGCACAACUAAUGGUGACU [DMSMaPseq_invitro_SARS-CoV-2_Motif_162],-0.612
16,AGUCAUAGUCAGUUAGGUGGUUUACAUCUACUGAUUGGACU,-1.18
17,AGUCCCUGUUGCUAUUCAUGCAGAUCAACUUACUCCUACUUGGCGUGUUUAUUCUACAGGUUCUAAUGUUUUUCAAACACGUGCAGGCUGUUUAAUAGGGGCU,-0.948
18,AGUCUUGUAGUGCGUUGUUCGUUCUAUGAAGACU,-0.733
19,AGUGAGUACACUGGUAAUUACCAGUGUGGUCACU [SHAPE_invivo_SARS-CoV-2_Motif_119],0.0351
20,AGUGAUGGAACU [DMSMaPseq_invitro_SARS-CoV-2_Motif_229],-0.565
21,AGUGCCAACAGACAAUUAUAUAACCACUUACCCGGGUCAGGGUUUAAAUGGUUACACU,-0.449
22,AGUGUAAAAGUGCCUUUUACAUU [DMSMaPseq_invitro_SARS-CoV-2_Motif_79],-0.69
